Biological target: E351K human MLKL (residues 2–471), recombinant (human) (UniProt Q8NB16)

liposome dye release (5(6)-carboxyfluorescein), 1 μM protein, with ATP (% maximum dye release): 40
liposome dye release (5(6)-carboxyfluorescein), 1 μM protein, without ATP: 15 % of maximum
Substance: E351K human MLKL (residues 2–471), recombinant (from UniProt Q8NB16 2-471) (natural protein)
